Results reported in the nanobody polyreactivity screen of Harvey et al. (2022).

Assay: yeast display, Sf9 membrane polyspecificity reagent, FACS + sequencing; frameworks hold sequencing errors
Procedure, shortened: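 Genes from sorted yeast were amplified by colony PCR, read by MiSeq 2 × 250 sequencing and filtered on CDR length. These cells carried a synthetic nanobody library in Saccharomyces cerevisiae BJ5465 and were sorted by FACS into low and high (top ~1%) gates on anti-HA and streptavidin fluorescence. Polyreactivity is labelled according to the gate of origin.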

Sequence	polyreactivity (PSR sort gate)
QVQLVESGGGLVQAGGSLRLSCAASGSTFLRNAMGWYRQAPGKQGSWVATISYDGDSTYYADSVTGRFTISRDNAKNTVYLQMNSLKPDDPAVYYCAASYSQTFWDKDDYWGQGTQVTVSS	low polyreactivity
QVQLVESGGGLVQAGGILRLSCAASGSTLGFNAMGWYRLAPGKEREFDAGISASGSSTYYADSVKGRFTISRDNAKNTVYLQMNSLKPEDTAVYYCYAPRGSRRSYRRTEFYYWGQGTQVTVSS	high polyreactivity
QVQLVESGGGLVQAGGSLRLSCAASGITLDRYAMGWYRQAPGKERELVAAISRSTTSTYYADSVKGRFTISRDNAKNTVYLQMNSLKREDTAVYYCATRTYRVDPEYGYWGQGTQVTVSS	high polyreactivity
QVQLVESGGGLVQAGGSLRLSCAASGLTFRYYAMVWYRQAPGKERELVATITRAGRTNYADSVKGRFTISRDNAKNTVYLQMNSLKPEDTAVYYCATKRVLTGFDSWGQGTQVTVSS	high polyreactivity
QVQLVESGGGLVQAGGSLRLSCAASGSTIPLYAMGWYRQAPGKERELVAAISRRGGRTYYADSVKGRFTISRDYAKNTVYLQMNSLKQEDTAVYYCATAQGSRVDYWGQGTQVTVSS	high polyreactivity
QVQLVESGGGLVQAGGSLRLSCADSGITFGVYAMGWYRQAPGKERELVAAISRRGASTYYADSVKGRFTISRDNAKNTVYLQMNSLKPEDTAVYYCAAYLARRQYDYWGQGTQVTVSS	high polyreactivity
QVQLVESGGGLVQAGGSLRLSCAASGRIFSVYAMGWSRQAPGKERELVATIRWGGGSTYYADSVKGRFTISRDNAKNTVYLQMNSLKPEDTAVYYCAAGWRGGRYRYFAYDYWGQGTQVTVSS	high polyreactivity
QVQLVESGGGLVQAGGSLRLSCAASGNIFRVYDMGWYRQAPGKERELVAVIRWSSGRTYYADSVKGRFTISRDNAKNTVYLQMNSLKPEDTAVYYCATKLWRVPRNSHYDSYEYWGQGTQVTVSS	high polyreactivity
QVQRVESCGGLVQAGGSLRLSCAASGSIFTQYTMGWYRQEPAKERELVAAISRSGGRTYYADSVKGRFTISRDNAKNTVYLQMNSLKPEDTAVYYCATRALYWRYGYDYWGQGTQVTVSS	high polyreactivity
QVQLVESGGGLVQAGGSLRLSCAASGRIFYGYAMGWYRQAPGKERELVAAIRTSGGSTYYADSVKGRFTISRDNAKNTVYLQMNSLKPEDTAVYYCNAGIVPRNRYYTPYNYWGQGTQVTVSS	low polyreactivity
QVQLVESGGGLVHAGGSLRLSCAASGRIFYPYTMGWYRQAPGKERELVAAISIRGTSTYYADSVKGRFTISRDNAKNTVYLQMNSLKPEDTAVYYCAALYVGYDYWGQGTQVTVSS	high polyreactivity
QVQLVESGGGLVQAGGSLRLSCAASGIIFKYYAMGWYRQAPGKEREFVATISRRGGSTYYAYSVKGRFTISRDNAKNTVYLQMNSLKPEDTAVYYCATEYSPGREYKFNFWGQGTQVTVSS	high polyreactivity
QVQLVESGGGLVQAGGSLRLSCAASGSIFRGNAMGWYRQAPGKERELVAAISSRGGSTYYADSVKGRFTISRDNAKNTVYLQMNSLKPEDTAVYYCGAVRYKYWGVQRSYSWGQGTKVTVSS	high polyreactivity
QVQLVESGGGLVQAGGSLRLSCAASGYIFIDYAMGWYRQAPGKERELVAAIRWSDSTYYADSVKGRFTISRDNAKNTVYLEMNSLKPEDTAVYYCAAEDSIRWVRRSRWYYYWGQGTQVTVSS	low polyreactivity
QVQLVESGGGLVQAGGRLRLSCAASGSIISYYAMGWYRQAPGKERELVATITSSGSTYADSVKGRFTISRDNAKNTVYLQMNSLKPEDTAVYYCNADSGYSEYWGVDVAYDYWGQGTQVTVSS	low polyreactivity
QVQLVESGGGLVQAGGSLRLSCAASGSTSVVNAMGWYRQAPGKERELVAAISTGGASTYYADSVKGRFTISRDNAKNTVYLQMNSLNPEDTAVYYCAADLGYEYDYWGQGTQVTVSS	high polyreactivity
QVQLVESGGGLVQAGGSLRLSCAASGSIFGSNAMGWYRQAPGKEREFVAVITWRVGDTYYADSVKGRFTISRDNAKNTVYLQMYSLKPEDTAVYYCNVDWKVYGAPDYRIAWKYDYWGQGTQVTVSS	low polyreactivity
